According to publication PMC4928909, “Roles of C-Terminal Region of Yeast and Human Rad52 in Rad51-Nucleoprotein Filament Formation and ssDNA Annealing”:

Key:
Test in all cases: EMSA; 3 mM Mg acetate; 30 mM Tris-acetate pH 7.5, 3 mM Mg acetate, 20 mM NaCl, 37 C, 15 min, 100 nM labeled ssDNA; 6% PAGE in TBE
hRAD52NM = molecular target: T1, hRAD52NM (Homo sapiens, UniProt P43351 1-290); settings: protein: recombinant; tags: C-terminal His6; chain copies: 11; label: 5'-32P; single strand
T1 sequence: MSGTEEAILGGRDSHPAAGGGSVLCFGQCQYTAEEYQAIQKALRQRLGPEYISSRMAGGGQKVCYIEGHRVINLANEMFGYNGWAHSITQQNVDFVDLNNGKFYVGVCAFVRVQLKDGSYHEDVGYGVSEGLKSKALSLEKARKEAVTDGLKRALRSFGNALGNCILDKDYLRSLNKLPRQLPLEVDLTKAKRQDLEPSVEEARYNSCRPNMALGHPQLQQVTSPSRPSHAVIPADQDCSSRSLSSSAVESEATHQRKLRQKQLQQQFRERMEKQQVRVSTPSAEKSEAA

yRad52 = yRad52 (Saccharomyces cerevisiae, UniProt P06778 1-471); settings: protein: recombinant; tags: C-terminal His6; chain copies: 10; label: 5'-32P; single strand
Chain of yRad52 (P06778 whole entry): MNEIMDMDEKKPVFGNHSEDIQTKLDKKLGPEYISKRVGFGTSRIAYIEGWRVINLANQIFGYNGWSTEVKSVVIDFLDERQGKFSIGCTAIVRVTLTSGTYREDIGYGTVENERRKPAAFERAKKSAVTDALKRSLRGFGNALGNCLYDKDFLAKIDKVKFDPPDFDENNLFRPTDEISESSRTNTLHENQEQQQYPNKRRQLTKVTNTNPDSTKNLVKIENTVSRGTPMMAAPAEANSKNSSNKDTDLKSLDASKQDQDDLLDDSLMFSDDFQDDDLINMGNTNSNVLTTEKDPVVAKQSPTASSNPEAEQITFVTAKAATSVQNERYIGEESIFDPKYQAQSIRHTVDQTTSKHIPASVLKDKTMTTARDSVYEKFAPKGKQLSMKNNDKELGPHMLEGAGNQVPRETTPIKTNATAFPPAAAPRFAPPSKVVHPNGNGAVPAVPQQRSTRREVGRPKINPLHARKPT

hRAD52 = molecular target: T2, hRAD52 (Homo sapiens, UniProt P43351 1-418); settings: protein: recombinant; tags: C-terminal His6; label: 5'-32P; single strand
T2 sequence: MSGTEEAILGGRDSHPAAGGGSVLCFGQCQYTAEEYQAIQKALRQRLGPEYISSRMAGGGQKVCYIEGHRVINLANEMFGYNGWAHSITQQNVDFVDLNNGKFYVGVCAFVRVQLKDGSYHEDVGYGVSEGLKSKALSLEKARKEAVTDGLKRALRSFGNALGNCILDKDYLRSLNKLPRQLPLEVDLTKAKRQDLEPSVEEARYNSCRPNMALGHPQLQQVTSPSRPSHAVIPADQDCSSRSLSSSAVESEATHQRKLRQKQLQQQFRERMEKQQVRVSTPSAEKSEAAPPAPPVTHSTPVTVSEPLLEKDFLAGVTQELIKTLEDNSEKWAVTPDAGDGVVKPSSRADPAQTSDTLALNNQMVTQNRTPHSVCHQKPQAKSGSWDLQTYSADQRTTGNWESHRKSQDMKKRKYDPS

Measured: binding result

B1: TSO252 (ssDNA)
DNA: TGGTTGAGTACTCACCAGTCACAGAAAAGCATCTTACGGATGGCATGACAGTAAGAGAATTATGCAGTGC
binds: hRAD52NM | yRad52 | hRAD52
